How the values were obtained:
Assay in all cases: cell array, transfected fixed HEK293 cells
[1] = molecular target: T1, ZG16B (human, UniProt Q96DA0)
T1 construct: expressed in transfected HEK293 cells
T1 sequence (looked up): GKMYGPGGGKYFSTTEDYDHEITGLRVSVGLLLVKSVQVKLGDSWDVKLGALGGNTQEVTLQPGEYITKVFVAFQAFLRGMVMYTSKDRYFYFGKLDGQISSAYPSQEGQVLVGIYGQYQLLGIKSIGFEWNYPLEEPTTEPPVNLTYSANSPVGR
Experimental: (§1) Transfection of all plasmids was confirmed by screening for the co-encoded marker ZS green (FIG. 13A).
(§2) Primary hits (duplicate spots) were identified by analysing fluorescence (AF647 and ZsGreenl) on ImageQuant. Vectors encoding all hits were sequenced to confirm their correct identities. […] Slides were analysed as above.

[2] = molecular target: T2, EDN2 (human, UniProt P20800)
T2 construct: expressed in transfected HEK293 cells
T2 sequence (looked up): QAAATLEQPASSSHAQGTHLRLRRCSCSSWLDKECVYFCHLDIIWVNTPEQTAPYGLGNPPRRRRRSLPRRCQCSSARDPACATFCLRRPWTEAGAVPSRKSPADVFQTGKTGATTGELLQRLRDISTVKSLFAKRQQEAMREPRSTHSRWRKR
Experimental: as §1, §2

[3] = molecular target: T3, KRT19 (human, UniProt P08727)
T3 construct: expressed in transfected HEK293 cells
T3 sequence (looked up): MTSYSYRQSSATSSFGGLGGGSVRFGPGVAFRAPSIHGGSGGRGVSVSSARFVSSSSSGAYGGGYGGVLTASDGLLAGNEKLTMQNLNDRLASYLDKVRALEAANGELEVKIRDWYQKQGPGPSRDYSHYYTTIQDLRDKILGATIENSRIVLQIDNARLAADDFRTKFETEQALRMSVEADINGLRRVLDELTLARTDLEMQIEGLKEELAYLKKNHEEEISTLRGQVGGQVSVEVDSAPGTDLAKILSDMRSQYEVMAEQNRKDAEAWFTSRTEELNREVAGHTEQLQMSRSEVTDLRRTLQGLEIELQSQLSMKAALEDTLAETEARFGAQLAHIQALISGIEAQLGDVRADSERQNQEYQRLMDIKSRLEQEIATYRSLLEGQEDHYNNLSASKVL
Experimental: as §1, §2

[4] = molecular target: T4, ANXA6 (human, UniProt P08133)
T4 construct: expressed in transfected HEK293 cells
T4 sequence (looked up): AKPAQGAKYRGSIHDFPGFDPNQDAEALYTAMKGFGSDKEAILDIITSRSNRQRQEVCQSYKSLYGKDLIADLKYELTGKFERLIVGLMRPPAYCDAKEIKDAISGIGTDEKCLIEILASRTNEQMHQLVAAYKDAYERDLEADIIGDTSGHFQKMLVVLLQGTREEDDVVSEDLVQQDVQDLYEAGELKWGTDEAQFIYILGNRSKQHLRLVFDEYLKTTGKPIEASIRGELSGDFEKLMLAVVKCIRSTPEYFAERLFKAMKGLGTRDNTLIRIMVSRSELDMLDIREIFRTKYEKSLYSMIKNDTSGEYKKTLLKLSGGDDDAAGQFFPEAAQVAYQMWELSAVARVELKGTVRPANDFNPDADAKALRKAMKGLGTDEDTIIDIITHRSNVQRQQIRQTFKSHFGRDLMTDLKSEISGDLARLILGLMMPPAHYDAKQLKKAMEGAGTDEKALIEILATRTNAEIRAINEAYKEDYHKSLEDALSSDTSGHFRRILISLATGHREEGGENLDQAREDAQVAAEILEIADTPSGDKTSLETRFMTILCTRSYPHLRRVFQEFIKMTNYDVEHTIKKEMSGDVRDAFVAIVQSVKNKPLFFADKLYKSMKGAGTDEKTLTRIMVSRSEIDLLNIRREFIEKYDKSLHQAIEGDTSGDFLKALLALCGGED
Experimental: as §1, §2

[5] = molecular target: T5, EDN1 (human, UniProt P05305)
T5 construct: expressed in transfected HEK293 cells
T5 sequence (looked up): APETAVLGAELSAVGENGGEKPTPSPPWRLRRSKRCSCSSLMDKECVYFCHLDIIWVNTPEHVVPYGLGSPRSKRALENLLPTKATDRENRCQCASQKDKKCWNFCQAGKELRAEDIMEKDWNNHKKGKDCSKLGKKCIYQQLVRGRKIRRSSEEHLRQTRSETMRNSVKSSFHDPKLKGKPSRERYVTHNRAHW
Experimental: as §1, §2

[6] = molecular target: T6, DES (human, UniProt P17661)
T6 construct: expressed in transfected HEK293 cells
T6 sequence (P17661 2-470 limits assumed): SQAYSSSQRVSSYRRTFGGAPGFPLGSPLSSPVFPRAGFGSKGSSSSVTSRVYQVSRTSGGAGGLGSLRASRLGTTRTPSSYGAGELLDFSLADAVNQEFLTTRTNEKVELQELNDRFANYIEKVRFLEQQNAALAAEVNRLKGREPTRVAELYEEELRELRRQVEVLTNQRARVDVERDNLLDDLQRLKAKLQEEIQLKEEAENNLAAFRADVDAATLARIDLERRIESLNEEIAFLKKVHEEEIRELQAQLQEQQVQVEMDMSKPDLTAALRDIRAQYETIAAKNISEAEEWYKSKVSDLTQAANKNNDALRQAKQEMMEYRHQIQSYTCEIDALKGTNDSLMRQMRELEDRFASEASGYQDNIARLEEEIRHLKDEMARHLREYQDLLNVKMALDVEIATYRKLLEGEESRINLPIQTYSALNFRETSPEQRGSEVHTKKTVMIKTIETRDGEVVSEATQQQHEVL
Experimental: as §1, §2

[7] = molecular target: T7, MS4A1 (human, UniProt P11836)
T7 construct: expressed in transfected HEK293 cells; also called CD20
T7 sequence (looked up): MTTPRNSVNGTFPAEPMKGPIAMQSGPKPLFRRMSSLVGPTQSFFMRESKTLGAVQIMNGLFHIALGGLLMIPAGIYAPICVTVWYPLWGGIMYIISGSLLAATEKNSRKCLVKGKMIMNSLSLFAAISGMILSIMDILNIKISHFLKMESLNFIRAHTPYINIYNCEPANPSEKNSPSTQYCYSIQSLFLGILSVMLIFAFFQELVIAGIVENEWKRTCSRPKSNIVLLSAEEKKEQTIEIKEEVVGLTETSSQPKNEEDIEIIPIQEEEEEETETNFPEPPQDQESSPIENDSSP
Experimental: as §1, §2

binding result [1]: no binding (tested: 2 µg/ml)
binding result [2]: no binding (tested: 2 µg/ml)
binding result [3]: no binding (tested: 2 µg/ml)
binding result [4]: no binding (tested: 2 µg/ml)
binding result [5]: no binding (tested: 2 µg/ml)
binding result [6]: no binding (tested: 2 µg/ml)
binding result [7]: no binding (tested: 2 µg/ml)
B1: humanized h37M, human IgG1 (antibody, V domains shown)
VH: QVQLVQSGAEVKKPGASVKLSCKASGYTFTDYYINWVRQAPGKGLEWIARIYPGSGNTYYNEKFKGRATLTADKSTSTAYMQLSSLRSEDTAVYFCARGVYYFDYWGQGTTVTVSS
VL: DIVMTQSPSSLSASVGDRVTITCKASQNVRTNVAWYQQKPGKAPKALIYSASYRYSGVPDRFTGSGSGTDFTLTISSLQPEDFADYFCQQYNSYPRTFGGGTKVEIK
notes: human IgG1; terbium-labelled as the tracer of the HTRF assays; also called C-KIT-h37M; h37M-IgG1
